# Source: the supplement of paper PMC9170038
# Test system: MS2 coat protein
# Experiment: apparent KD of MS2 coat protein; higher = weaker reporter binding
# Settings: Eterna round: R107; input ligand: theophylline 20 uM
# Method: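 RNA-MaP round R107: designed RNA switches with theophylline, tryptophan, arginine or FMN aptamers are transcribed on-chip within common flanks. They are titrated with SNAP-549-labelled MS2 coat protein in RNA-MaP buffer (100 mM Tris pH 7.5, 80 mM KCl, 4 mM MgCl2), without ligand or with the indicated ligand. Median apparent KD per design.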
row,Sequence,apparent KD of MS2 coat protein
1,UCGUUGAAGUCGGCCGCCACUGAACUCAUGUUCAACAUGAGGAUCACCCAUGUACCUUAUUUUAACAGGACCGGGACUUUGACGA [JR_ExcTryptoB_Sub002],0.229 µM
2,CGCACAGAGAAUGAUACCAGCGAGGAAGCGACAUGAGGAUCACCCAUGUGCGAAUGAUCCCGCCCUUGGCAGCGUAAGUGAUCCC [ss-theoB-?],0.154 µM
3,AAACAUGAGGAUCACCCAUGUCCUCGUGAUCGAGGACCGGUACGGCCGCCACUCGGUCCUCGCGAGGUGGAGUCAAAGACUCCAA [Omei Trp A SS A v7],0.215 µM
4,GGGUGGUAGGCGGCCGCCACUGAUUUUUAUAUAUAUAUGACAUGAGGAUCACCCAUGUAGAUAUGCAGGACCGGGCCUGUUGUUU [aaaN],0.0282 µM
5,GACAUGAGGAUCACCCAUGUAUUGGGUGAUACCAGCCUGAAUCAUGGCCCUUGGCAGCACCGCGCUAACUUUAUGUUUGCGAACC [Mavegeceri],0.21 µM
6,AAGGUGAUCCGUGAUACCAGCUCAACAUGAGGAUCACCCAUGUAAGCCUGGAAACAGGCGAGCCCUUGGCAGCACGGUAAUAAUA [(M)'-(Theo1)-(Ms2)-(Theo2)-(M'')],0.0145 µM
7,GGUUACUCUACGGCCGCCACUGGGCAUGUAAAUAACAUGAGGAUCACCCAUGUGGAUUAAUAUUACAGGACCGGGUAGUGUAACC [Tryptophan B 23],0.253 µM
8,GCGAUGGAGCGAAGGAGCGGCUAUCACCGACAAAACAUGAGGAUCACCCAUGUUGGCAGUGGCCAGGUAGGUCGCGCUCCAUCGC [EAB NP+V+V2 #8],0.0123 µM
9,UAUCCACAUGAGGAUCACCCAUGUUAGGAAGGAGCGGUGAAUGCACCAGGUAGGUCGCCUAGCUGAGGACUGUCGGUGGAUUCGU [Exclusion - Arginine A (Freestyle 19)],0.047 µM
10,AGCUCGCAUCCUCUAGCGUCAAAGACGCCUCGAGGACCGGUACGGCCGCCACUCGAGAUGAGGAUCACCCAUCUCAAAGCGAGCA [TrypAX 14 #SwitchBubble #AlternativeMS2 #MS2Late #CuTurnoff],0.197 µM
11,GGUUACUCUACGGCCGCCACUGUAAAGUAAAUAUUAAUGUACAUGACAUGAGGAUCACCCAUGUACAGGACCGGGUAGUGUAACC [Tryptophan B 14],0.0565 µM
12,CGGUUGCCACAUGAGGAUCACCCAUGUGAAGGAGCGGCGAAUAAGCCAGGUAGGUCGCGCAUGAAUAAAUCAUGUUGGUGCCGAA [XArg-A 17 V2],0.0651 µM
13,GGGUACAUCGCGGCCGCCACUCAUGUAAAUUCAUGAGGAUCACCCAUGACGAUGGAGACAUCGGAGAGGACCGGGUGAUGUACCG,0.023 µM
14,CACAGUGCGAAAUUGAAUUCGCACGAUCCUCGAGGACCGGUACGGCCGCCACUCGCGCGGGUCGUACAUGAGGAUCACCCAUGUC [Zatiin],0.419 µM
15,GUAUCUAUGUGAAAUAGAUAUGUAACUGAAGGAGCGUCAUUAAGGACAGGUAGGUCGCGGAGCACAUGAGGAUCACCCAUGUCGG [#09 Same State - Arginine A],0.0311 µM
16,GGCCCUGCGAGCGCUCGCAGGGCCGCGGAUACCAGCGAGGUCCAUCGCCCUUGGCAGCCGAACAUGAGGAUCACCCAUGUCGGUA [#1 Same State - Theophylline A Attempt #13 (HarryS)],0.0129 µM
17,ACAUGAGGAUCACCCAUGUUCCUCGCCGAUACCAGUGAAGAAUUACGCCCUUGGCAGCGGAAAGAGUGUUUUGGAGAUGAGGUAC [6.aA],0.112 µM
18,CCACACAUGAGGAUCACCCAUGUAAUUGAUACCAGAUUUAAAUGAGUCCCUUGGCAGCAGUGAGCUAGAGUUGUCGUAUAUAUGG [Theo A SS t2],0.0238 µM
19,AAAAUAAACUCGGCCGCCACUCAACGGACCCUUUGGACAUGAGGAUCACCCAUGUAUUUUGGAAAGAGGACCGGGAGAAAUAAAA [Exclusion - Trytophan B],0.0178 µM

# Same assay, conditions: Eterna round: R107; input ligand: theophylline 2 mM
row,Sequence,apparent KD of MS2 coat protein
1,GGGAUAUCCCGAAGGAGCGCGAGAUGCUGUGCUGCAUUCCUCACAUGAGGAUCACCCAUGUCGCAGGUAGGUCGCGGGAUAUCCC [#16 Exclusion - Arginine B],0.553 µM
2,AAUAAUAACAUGGGUGAAGUCGUACCAUAACGAGGACCGGUACGGCCGCCACUCGAACAUGAGGAUCACCCAUGUAGGUACGACA [M'-T'-T-MS2-T'' - Design 9],0.0852 µM
3,UGGGUACAUGAGGAUCACCCAUGUACUGAAGGAGCGAGAAUUAUCUCAGGUAGGUCGCAGACAUGAGGAUCACCCAUGUAGUAGG [Exclusion Arginine A GF 12],0.0372 µM
4,UGUAUGUGAUCUGAUACCAGAGUGAAUAAACCUGAGGAUCACCCUGGUAGGCGAAAGCCACUCCCUUGGCAGCAGAUCGCAUACU,0.0386 µM
5,UGUUUGGUGCGCGAGUGUUGGAUAAUUGAUACCAGUGAAGAAGAGCGCCCUUGGCAGCGAAUCCUAACAUGAGGAUCACCCAUGU [5.U],0.0517 µM
6,AAACAUGAGGAUCACCCAUGUCCUCCUGUCCGAGGACCGGUACGGCCGCCACUCGGUUCUCGGGAGGAUGGUCAAAGACUAUCCA [Omei Trp A SS B v9],0.332 µM
7,ACAUGAGGAUCACCCAUGUACGAGUCGGAAGGAGCGGCAAUUAAGCCAGGUAGGUCGCCGGCAGAGAGUGUCAUUGUAAGUAUGA [Same State - Arginine A / A],0.0123 µM
8,CCCUGGGUGGGAAGGAGCGCAUAGUGAACAUGAGGAUCACCCAUGUGUAGACGUGAGUCACUGCAGGUAGGUCGCCCACCCAGGG [SS-ArgB23],0.0465 µM
9,GGUCGCCAACAUGGGUGGGCGACCCUGGAAGGAGCGAGCGAGAGCUCAGGUAGGUCGCCAGAACAUGAGGAUCACCCAUGUAAUA [(A)''-(M)'-(A)'(Arg1)-(Arg2)-(M1)-(M2)_Design13],0.0703 µM
10,GGAUAGGACAGAAGGAGCGACAUGCGACGAAAGUCGAAAAGAUCACAUGAGGAUCACCCAUGUCAGGUAGGUCGCUGUCCUAUCG [ArgXB 10 #Zipper #MS2Left #StaticStem #Blueprint],0.154 µM
11,ACGAUAGGACUUGAGGAACACCCAAGUGAUACCAGCCUGGAAACAGGCCCUUGGCAGCACUAAUACUCCAAUAACCUAUCGAAUA [TheoAX 15 #MicroSwitchBubble #AlternativeMS2],0.0667 µM
12,UGUGUGUGACCAGGAAAUGGUCACACACAGCGAGGACCGGUACGGCCGCCACUCGGCCGUACAUGAGGAUCACCCAUGUCGGGUA [#1 Same State - Tryptophan A Attempt #9 (HarryS)],1.29 µM
13,AGAGGUAUACAUGGAAACAUGUAUAUUUCACGAGGACCGGUACGGCCGCCACUCGGUACCGGAAACACAUGAGGAUCACCCAUGU [Ex_TrypA - H1],0.0243 µM
14,GCACCAGGUACGGAUACCAGCUGCCCGAGAUACAUGAGGAUCACCCAUGUGACCUGAUUUAGCCCUUGGCAGCUGUACCUGGUGC [SSThB NP+V+V2 #1],0.0559 µM
15,CAAUGCAGGUCGGCCGCCACUACACACAUGAGGAUCACCCAUGUAGUUACUGGGUGAAGUGGCAGUAGGACCGGGACCUGCAUAA [Brourdmod02],0.568 µM
16,ACACAUGAGGAUCACCCAUGUGCGCUGGAAGGAGCGCAGAAUCAUGCAGGUAGGUCGCCAGUGCCUUUUGAUAAAGGGAAAAGAA [Cezaquce],0.0693 µM
17,AAUUUUAACGGAAGGAGCGUCACGUAAUUCAUACAUGAGGAUCACCCAUGUUAGUUGUAGAGACAGGUAGGUCGCCGUUAUUUGA [JR_AAArginiB_Sub025],0.0171 µM
18,UCGUUGAAGUCGGCCGCCACUGAACUCAUGUUCAACAUGAGGAUCACCCAUGUACCUUAUUUUAACAGGACCGGGACUUUGACGA [JR_ExcTryptoB_Sub002],0.164 µM
19,AAACAUGAGGAUCACCCAUGUCCUCGUGAUCGAGGACCGGUACGGCCGCCACUCGGUCCUCGCGAGGUGGAGUCAAAGACUCCAA [Omei Trp A SS A v7],0.115 µM
20,GGGUGGUAGGCGGCCGCCACUGAUUUUUAUAUAUAUAUGACAUGAGGAUCACCCAUGUAGAUAUGCAGGACCGGGCCUGUUGUUU [aaaN],0.022 µM
21,GGUUACUCUACGGCCGCCACUGGGCAUGUAAAUAACAUGAGGAUCACCCAUGUGGAUUAAUAUUACAGGACCGGGUAGUGUAACC [Tryptophan B 23],0.384 µM
22,GCGAUGGAGCGAAGGAGCGGCUAUCACCGACAAAACAUGAGGAUCACCCAUGUUGGCAGUGGCCAGGUAGGUCGCGCUCCAUCGC [EAB NP+V+V2 #8],0.0108 µM
